Data on one substance can be found in paper PMC2820527.

The assay concerns the target SmTK4-SH2SH2 (tandem SH2-domain of SmTK4 as a fusion protein with the Gal4-BD) (Schistosoma mansoni) (UniProt Q8WPV5). Nature of the assay: two-hybrid; beta-Gal liquid assay (ONPG) in AH109, relative binding strength; bait plasmid co-expresses the SmTK3 TK-domain (additional phosphorylation).

“SmTK6 prey clone (novel schistosome Src kinase SmTK6, partial, Gal4-AD fusion) (from UniProt C5J9R9 1-565) (domain or fragment)” gave a fold increase of the interaction (β-Gal liquid assay) with the SmTK3 TK-domain against without it of 5 fold.
